Assay results as given in patent US20030229003, “Use of transcription factors for treating inflammation and other diseases” (published 2003).

Experiments:
ESE-1 (ELF3) [1] = target: T1, ESE-1 (ELF3) (Homo sapiens, UniProt P78545 P78545:1-371); test: cell_activity
T1 sequence: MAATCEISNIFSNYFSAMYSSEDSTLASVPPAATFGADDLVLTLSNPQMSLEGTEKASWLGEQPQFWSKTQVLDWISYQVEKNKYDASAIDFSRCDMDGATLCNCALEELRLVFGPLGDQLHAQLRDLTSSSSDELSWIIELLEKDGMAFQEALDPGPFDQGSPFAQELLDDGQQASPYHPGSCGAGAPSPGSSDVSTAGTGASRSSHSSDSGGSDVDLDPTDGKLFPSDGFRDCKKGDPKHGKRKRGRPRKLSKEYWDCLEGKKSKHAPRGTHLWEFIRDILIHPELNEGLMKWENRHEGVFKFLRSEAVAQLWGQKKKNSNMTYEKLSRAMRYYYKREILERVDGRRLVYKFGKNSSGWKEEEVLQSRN

ESE-1 (ELF3) [2] = target: T1, ESE-1 (ELF3); test: EMSA; details: tags: pCI/ESE-1, TNT rabbit reticulocyte lysate; label: 32P
Experimental: Having identified putative targets for ESE- 1 we were also interested to determine whether ESE- 1 could specifically bind to Ets sites within the NOS2 promoter. An Ets binding site was identified which is highly homologous to the Ets consensus binding site for ESE- 1 (Oettgen, P., et al., 1999, J Biol Chem 274:29439-52). […] As is shown in FIG. 6, ESE- 1 binds equally well to both Ets sites.
In vitro transcription-translation was performed in TNT rabbit reticulocyte lysate (Promega) using the pCI/ESE- 1 vector as described (Oettgen, P., et al. et al. 1997, Mol Cell Biol 17:4419-33). EMSAs and supershift assays were performed using 2 μl of in vitro translation product or 3 μl of whole cell extract and (³²P)-labeled double stranded oligonucleotide probes in the presence or absence of competitor oligonucleotides (1, 10 or 100 ng) or antibodies as described (Akbarali, Y., et al. 1996. J Biol Chem 271:26007-12). Whole cell extracts were made from U- 138 Mg cells after incubation with IL-1β for 0, 3, and 8 hours using as lysis buffer 1% Triton X- 100, 25 mM glycylglycine pH7.8, 15 mM MgSO₄, 4 mM EGTA, 1 mM dithiothreitol, phenylmethylsulfonyl fluoride, Aprotinin, and Pepstatin. All antibodies for super-shift assays (2 μl per assay) were obtained from Santa-Cruz Technologies (CA) (Oettgen, P., et al. 1996, Mol Cell Biol 16:5091-106).

ESE-1 (ELF3) [3] = target: T1, ESE-1 (ELF3); test: EMSA; strong specific complex; data not shown; details: tags: pCI/ESE-1, TNT rabbit reticulocyte lysate; label: 32P

Molecule NOS2 promoter -234/+31 has an activity (ESE-1 (ELF3) [1]; luciferase transactivation, RAW cells, promoter length in Example 1M not stated) of 12 fold.

COX-2 promoter -170/+103 showed an activity (ESE-1 (ELF3) [1]; luciferase, RAW 264.7) greater than 10 fold.

B1: murine PSP promoter Ets site (dsDNA)
DNA 1: TCGACGAACATCCAGGAAATAGGGCTC
DNA 2: TCGAGAGCCCTATTTCCTGGATGTTCG
B1: binds (ESE-1 (ELF3) [2]).

B2: COX-2 promoter Ets site 3 (dsDNA)
DNA 1: CGAAAAGGCGGAAAGAAACAGT
DNA 2: ACTGTTTCTTTCCGCCTTTTCG
B2: binds (ESE-1 (ELF3) [3]).

B3: COX-2 promoter Ets site 1 (dsDNA)
DNA 1: GCACGTCCAGGAACTCCTCAGC
DNA 2: GCTGAGGAGTTCCTGGACGTGC
B3: binds (ESE-1 (ELF3) [3]).
